# Experiment: label from the status in PepcDB records
row,Sequence,protein production
1,MRYGLRVEAITLWILGGLASLEAIPKEWNRELVIALAGPAVSILTGLACYAALFALPASAQVTLFVIGWLAVTNIFLAVFNMLPAFPMDGGRVLRALLARTRPYATATRIAARIGTGFAVLFAVVGVLSFSPLLLLLALFVYGAASSESRTVALAALLDGLSVDDVASPLDATIEANASVEDLVDRMFADRRTEFAVTRGGDVVGVVTVDDFRELSKAEREADTVADLMEADLPRFPAAMAAFDALVELDTARASAAFVDGPEGTRVVSRDDFSSAMEMRRLVDSPEPF,failed
2,MRYGRTVPVTEAAELPPAPEQAREVFGDRFADAVRYAELLAEAGVQRGLIGPREVPRLWERHLLNCAVLSEVVPEGVTVCDVGSGAGLPGIPLALVREDLKITLLEPLLRRTNFLTEVVELLGLDHVTVIRGRAEEVMGKIPPVHVVTARAVAPLDRLATWGIPLLRPYGEMLALKGDTAEEELKSAATALSKLGAVETSVLHVGEGVVDPLSTVVRVEVGESPGGVRFAAKRAKAARTGRTRRRR,failed
3,MRYLFSLLFLLAYGSTVAQQPPMLPRDAAIEAKIEKLLEQMSLDEKIGQMVELEIGMITYRDPRYVVEKLARMSEQELADTLRRFGLDKQHNAAQLALTTPEDKQNKEKLMRLYWVSNDIQSKLPFRLDEAALDSVVGKYKVGSILNAPQTTAQTPAMWNQVVKTIQDVSIKHLGIPTVYGLDQMHGTTYSTGGTLFPGAINMAATFNRDLVYKMGEIVAYETRACNVPWIYGPCIDLGRMQAWSRQYESFGEDVFLSSEMGAAALRGMQGDNPNHIDAYHVAGCLKHYFAYGAPYNGLDRSPARLSYEELREKQFAPFLRGIREGALSIMTNSSNVNGVKGTVNREFITGWLKEGLGWDGMVVTDWGDIDGAVTSDRVVPTAKEAIRLAINAGVDMMMVPSQFTYNGLLKELVEEGGVSMERIDDAVRRILRLKHRVGLFEQPNTFAKDYPKFGSEEFAAYSRQAALESIVLLKNDSVDSQSRLLPIKQGTRLLVCGPNANSMRTLNGGWSYTWQGDGADREEFTGHFNTIYEALRNKFGSNHVTLVEGVSYDSKRWAMDHADNIGDAVAAAADNDYVIVCIGENTYAETRGNIADINLSTNQKNLVKALAATGKPIILVLNESRGRAISDIEPLAKAVVHTMLPGNYGGDALAELLAGNENFSGRLPYTYSAQPNAMVNYDYKASEVRETISGVYDYNAKTYEQWWFGAGMSYTTYTYSNLRADKNSFTKDDVLTFTVDVKNTGAMAGKETVMLYASDLYASLMPDNRRLRGFEKIVLAPDESKTVTFRIKASDLAFMGTGKKWTLEAGEFNIACGDQSVSIHCTEDYTWEEENIPDN,failed
4,MSADIEHIRQIMREADCLYTEAEVDAAIARVGAQINAELADRNPVVFCVMNGGLIFSGKLLTHLNFPLEASYLHATRYRNETTGGDLFWKAKPEVSFIDRDVLIIDDILDEGHTLGAIIDFCKHAGARAVHTAVLIDKDHDRKARPDLKADYVGLPCIDRYIFGFGMDYKGYWRNAAGIYAVKG,failed
5,MSADTSSLDFHPLRADLYQELHSRPFQIIPPHARVTQIAVITTPEQRTRQFEHLQKLHRLLGEPWPEQEVSCYEQSFGKLRIRREVHMEFTSYTFINLADSDADPFAETGLSLLPDGWLAQLEGTVVGAFHVEVRSSSEDARSELAFMRKHFEGMRLVGSSPQEGAARVLGSFQLHSDNFGRFMVLNHHMSNSQLGRLIQRLMEIETYRLMSLLALPVAREITPSLNDMDQQLARITQSLADNESLDEQQILAELTNIAARIEAYRAHTTFRFSATRAYHRLVLTRLEELREDEVSGHLTITEFMTRRLTPAVKTCEAVNERLEDLSRRVDRASEMMRTRVELAIQSQNQQLLSSMDRRSRIQLMMQHTVEGFSVVAISYYLIGLLKLGLDALTGTGLTINEPLVTGLAIPVVMVLVFIGIRTIHHRFIRMARRQ,failed
6,MSAECWAALLHDPMTLDMDAVLSDFVRSTGAEPGLARDLLEGKNWDLTAALSDYEQLRQVHTANLPHVFNEGRG,not failed
7,MSAEEKNLIEILEEGHKVDVVKYIDYVSAPQAGAIATFSGTTRDMFEGKTVLELRYEAYVPMATRCLSSICTTARSTWDIHKIAVAHRLGPVPVGETSVLIAVSSVHRADGLDACKFLIDELKASVPIWKKEVYTNGEIWKENSEFMEKRLELAEKRDSIVKKTVVEEHRRRGCCGSKVRVEEDEEHKDITGDNKSSS,failed
8,MSAFHIRAEQSRDISAIHDVTEAAFTGIEHSDGTEQDLVDKLRAAKALSLSLVAEADGEVIGHIAASEVLIGGGVQGWFGIGPVSVRPDKQQQGVGIALMGSALDQLRAEGAGGIVLLGDPGYYRRFGFEVVPGLVYPDAPAEFFMAVCLNAPAFPQGVVEYHSAFGG,failed
9,MSAGLTGIRVAVIGGDDREIYMIPELQKLGAYIVGVGFEKAAPIQGVTLLSSPLEAVEKADVLLFPMYGTDERGDVKAKYSETPIVLNKELLKAVSPKVPLFIGWARPALKSAAEMLGIQIVETANLDQLAILNSIPSAEGAIQMAMEASPITIHGSESFVLGLGRCGWTLARTLKGMGAHVTGVARKPADLARALEMGLEAVHFADLDEKIGKAELIFNTVPHLILDKVMLEQVNHEAVIIDIASLPGGTDFEYAKAKGIKAMLAPGLPGKVAPKAAGKILAQVYPQLILRHLTTKNASLKF,failed
10,MSAKDLPNGGPRLIDRYLLRLLLWPLAACLGVTVIALLLERILRLLDVLSQSSARFGYVAQLAANLVPHYLGLALPVAFFVALFIVIVKLSDGSEIDALLASGQSLERIAAPFVAVGVLLSVFSIIVFGYMQPYSRYAYRAVMHAAVNAGWNGRLAGGAFIDDKGSLLTADSADIAGQRLTRVFIRRLDAKGQEEIITAASADLKMDPDGKTITMDLRDGRRIAHDAYGTYRNLAFTSLTTQTPLSAAAVLLRDRGGDERELTMGELRREAKSPDPVVSKGTLLSEFYGRLARAAFLPFLPLLAFPLGLASKRGNRAPGLIMAGLLLLAFQHSLLLGQGMAKAGKADAFAAIWIPFTLFAALSVWLFVGSRTRPGDTPVSRLVRRINTLVTHALRLLPQPKKRQAA,failed
11,MSAPFHSALLDALNQRVVIGDGAMGTMLQAADLTLDDFLGLEGCNEILNDTRPDVLKDIHRAYFEAGADAVETNTFGCNLPNLADYDISDRIRELAEKGTRLARDVADEMGPGRDGMGRFVLGSMGPGTKLPTLGHAPFAILRDAYAEAAMGMIDGGADAILVETCQDLLQVKAAILGSQRAMETLGSRLPIITHVTVETTGTMLLGSEIGAALTALEPLGIDMIGLNCATGPAEMSEHLRHLSKYSSLPVSVMPNAGLPQLGPNGAEYPLTAEELAEALSGFVTEFGLGLVGGCCGTTPEHIRQVAEAVRLVEKAERNPVHESGTSSLYTAVPFQQDASILMIGERTNTNGSKAF,failed
12,MSAPHDSHTLINVLTLNAHMGFDLLKRRFILAALREAIREVCAEIVCLQEVLGEHALHARRHAQWPAVAHYEYLAEMLWPQFSYGRNAVYPHGHHGNAVLSKFPISSFANHDVSVPGHEPRGVLHAVLQVPGWSEELQVFCVHLGLHEAHRQQQIGLLCARVAALSADAPVVVAGDFNDWRARGHPLLTRCGLVEAVECMHGRVARSFPSRFPVLPLDRIYLRNLRVVQARVLSGLPWSRLSDHLPLLASIAP,failed
13,MSAPIEQPAWTKRMNANPQSQAAPVSAAQQDLQRLRTHLNTQIIGQSDLVDAMLIALLADGHMLVEGAPGLAKTRAIHVLSRGVEADFQRIQFTPDLLPADLTGTEVYRPQDGSFHFQPGPLFHNLVLADEINRSPAKVQSALLEAMAERQITVGRKTYPLPALFLVMATQNPIEQEGTYPLPEAQLDRFLMYVRIGYPGAEQEKAILRLVRGEAGRPECRAAEAMEPVSQQTLFSAREEVLGVYLAEALEDYLLQLILATREPARYGDSLARWILYGVSPRATLALDRCARARAWLDGRDYVTPDDIQALAPAILRHRLILSYEAEAEGVSSDQVVKDLLRRIAVP,failed
14,MSAPLFSVVVPAYNQHKFIDSCLTSLQRQTLTDFEVFVVDDCSTDDTGEQIAALIKGDDRFHVITHAHNRGVSAARNSGMAAAKGKYLCFVDGDDWVEPDFLATFLAAYRSAPDTQLVVCGHYGYLAVPSPAKTYNQKDLIANINFGTVGGFSWNKAFIRSIITTHHLKFNEDIDFLEDQLFAFRYANYVQSSEYVPDRTYHYRWRFRSNLAHIGIPFFTARRKMMKILKQENKQVLNEDWNNQLEHHHHHH,failed
15,MSAPQAPSAPHSPPDVPVMQVIFGLMLAIMLGALEQSIVAVVLPEIALQLNGFEDMAWVISAYLVASTVVTPIYGKLSDVLGRRSVLTFSIVLFVLASIACAMATTMPMLIVARILQGLGGGGLISVSQATIADVVPLRERGKYQGYVSGVWAVASMAGPVIGGYLAHFLSWRWIFWINIPLGLIALIVVRRALRHLPVSGRKHRIDYLGALLFGGGLSGVLVFLTRMGQGHSPLEPQTIGLLAAGLIGLVLFIWQERRAVDPVIPLKMLAVPTVAICCLTLFLCFFQLIAMSVLLPLRFQVVGGAGADTAALRLVPLTLAIPFGAYASGRLMSWSGRYKPLQLAGCLVAPIAIVGLAFVPPQAVVPAALVMIVLGLSIGLQLPSGLVATQNSVPPQQVGIATALTAFSRLLGGAVGVAVLTTVLIALLRHSGMAVSDLHGGEDVLMSMFRRAMDAGDQGDAAAVREAAEHAFRLLFLMSAGVSLIAPFFVMRLKEKTLRGSPAGAAASAAAE,failed
16,MSAPSDTPTYLHGFSATEQARLLKQARLLETTLFNQIDYSGARRLLEVGSGVGAQTEILLRRFPELHVTGVDLSETQLDAARANLERLAWCRARYTLQQADASDLPFEARQFDAAFLCWVLEHVPSPARVLNEVRRVLLPGSPVYVTEVMNASFLLHPYSPSLWRYWMAFNDFQHDQGGDPFVGAKLGNLLLAGGFRDVHTQIKTLHLDNREPGRRKTMIGFWEEVLLSAADQLLQAGAVEAATVDGMRRELAQVHSDPDAVFFYSFVQARATVY,failed
17,MSAQKQEKTNVFLDPSKNEAYFKKRVGMGESFDLGVRKVFILGHEVQLYYVNGLCDTQYIIHLLRELVHLNDKEKESGEVEDIVENRLLNQQVSKAETLDEAVDQVLSGLVAIIVEDAGFAFIIDVRSYPGRTPEEPDTEKVVRGARDGLVENIIVNTALIRRRIRDERLRYKMLHIGERSKTDICLCYLEDVADPDLVEVLKKEIEDVKIDGLPMSDKSVEEFLVGQGYNPFPLVRFTERADVAASHILEGHVIVIVDTSPSVIITPTTLFHHVQHAEEYRQTPAVGTFLRWVRFFGILASTFLLPLWLLFVIHPSLLPDNLSFIGLNKDTHIPIIMQIFLADLGVEFLRMAAIHTPTALSTAMGLIAAVLIGDIAINVGLFSPEVILYVSLSAIGAYTTPSYELSLANKMVKLFMLILVALFKVEGFVIGLTILTIVMTSIRSLRTPYLWPLLPFNGKAFWHVLVRTSVPGGKVRPSIVHPRNRSRQP,failed
18,MSARLDAQIAFLKQADRLKSVERANVLLDLSRPENSAEHSWHLALWALVLSPFAAPDVDVDRAIRMLLLHDLVEIETGDHPIHEVTDWQAVERAERAAARKLFGLLPPDQAADFHTLWTEFDADETADARYAKMLDRCQPMFQVLCADTPRPDHVEVVRENLSSGRAAYLAEAFPEAHAHARALLERHPPVTGGFGDRLEFLAEADRLKTVLRASRLMDDSRFENSAEHSWHIMLYAWVLGEYAAAPVDIDRVLRMLLLHDLVEIDAGDNPIHGNVDHAAQEALEAAAAERLFGLLPPDQGAGLRAIWQEFETAQSADALFGKAVDRVQTPIANLENGGGSWVTYDVSLQQLVARVGTPVSRGAPGLWDWLFPQLSDCFTRLGLRLLEHHHHHH,not failed
